Results taken from PMC10111636.

Assays:
Conditions in all cases: glycan lost; control: Flag-LARP1-WT
[1] = Western blot, TMG with or without sh-circCLNS1A#1
[2] = cycloheximide chase, Western blot
[3] = cycloheximide chase, sh-circCLNS1A#1 vs sh-NC cells

Substance: La-related protein 1 (LARP1): S672A
- other: dependence of protein level on circCLNS1A [1]: abolishes
- degradation_or_half_life [2]: decreases
- other: dependence of protein stability on circCLNS1A [3]: abolishes
